Experiment: soluble on expression in E. coli; label from the status in PepcDB or PDB records

Sequence	soluble on expression in E. coli
MAHHHHHHMAECSGVADDDTTKKLLLEGDSALRQGRSYYQEALAKYTEALTHNPNSIRGLYSRAELLSMLRRRDACMSDLDQLLKLDSKHQRGLVLRSALYSQAGQLKEAVRDVEKLVEVMSEGGKAAKVQEYKAKLQQLRRYAEVWIPLQLKLQAAKQGAVTLSRDEQCACVGFLHDMIREFAKDNAGLRLQRAECALACGDNQAASEELKYVVQREPQNLDAVALGARALRALGALEQARRELRRCLSLDPEFALCAQLHKLVREQIRVTQGVEKALEEKDYGKVLKLIEGAMRFEENPPYKDQLLRWRCDAAVGMQDTKDGLPACDEAIQLYSPEDPTVVSILLQKLELYLMDGNVERAEEMLQRAQQLQPNDGKVNEYKRKMERIKRVGLRKNYYKILGVKKTADSSEIRRAYRHLAKTFHPDKLASQELSKEERAEADKRFRDINEAKEILLDDEKRARYDNGEDPTKPPGQDEHAFHGQPFNFPNEMFGQGGRFQQFYFHFD	not soluble
MGHHHHHHSHMSEETATSDNDNSYARVRAVVMTRDDSSGGWLPLGGSGLSSVTVFKVPHQEENGCADFFIRGERLRDKMVVLECMLKKDLIYNKVTPTFHHWKIDDKKFGLTFQSPADARAFDRGIRRAIEDISQGCPESK	soluble
MGSDKIHHHHHHMHSLQRKVLRTICPDQKGLIARITNICYKHELNIVQNNEFVDHRTGRFFMRTELEGIFNDSTLLADLDSALPEGSVRELNPAGRRRIVILVTKEAHCLGDLLMKANYGGLDVEIAAVIGNHDTLRSLVERFDIPFELVSHEGLTRNEHDQKMADAIDAYQPDYVVLAKYMRVLTPEFVARFPNKIINIHHSFLPAFIGARPYHQAYERGVKIIGATAHYVNDNLDEGPIIMQDVIHVDHTYTAEDMMRAGRDVEKNVLSRALYKVLAQRVFVYGNRTIIL	not soluble
MLNSAPSETEKSETEGSETKESNLVIEDEEERKECTSVKKTEGHFTRQVDQVTKYDKDYIWSLVHSQLREGGLSQAASDLVMSYFEERYAYALEHIRFARTAEAIAEYVFNGVLSEWTKQLR	not soluble
MQQASHPTVILGGGFAGLFTALHLSQQNYSYPIILIEQRDRFSFKPLLYELLSGELHSQQVYPRYQELLAGSKVKFVQDTVQSIDIHQQRVDTVSGQAFHYSNLILALGSKTTYFATPGAAEYAMPFTSGEQAIALRQHLRHKLYQAIQTSDSERRRLLLTVAIIGAGPSGIELACTLADLLPIWYDELGGDGSEIHVVLVNRSREILKGDVNSHLRCTVERAMKNRLIPVDFLFDAAVTKITPDGVECRRHGQIQMLQAGTIAWTAGTAPHPLLMELPVSQNRGRLLVKPTLQLSNFPEIFAAGDCATDSDHPQPPTAQVAYQQGIAIAQNLQRISQNKPTIPVQLEHHHHHH	not soluble
VEPVPDTHLRGITCLDHENEKVNMYCVSDDQLICALCKLVGRHRDHQVASLNDRFEKLKQTLEMNLTNLVK	soluble
MVKETKLYDLLGVSPSANEQELKKGYRKAALKYHPDKPTGDTEKFKEISEAFEILNDPQKREIYDQYGLEAARSGGPSFGPGGPGGAGGAGGFPGGAGGFSGGHAFSNEDAFNIFSQFFGGSSPFGGADDSGFSFSSYPSGGGAGMGGMPGGMGGMHGGMGGMPGGFRSASSSPTYPEEETVQVNLPVSLEDLFVGKKKSFKIGRKGPHGASEKTQIDIQLKPGWKAGTKITYKNQGDYNPQTGRRKTLQFVIQEKSHPNFKRDGDDLIYTLPLSFKESLLGFSKTIQTIDGRTLPLSRVQPVQPSQTSTYPGQGMPTPKNPSQRGNLIVKYKVDYPISLNDAQKRAIDENF	not soluble
MSLIVITGASSGLGAELAKLYDAEGKATYLTGRSESKLSTVTNCLSNNVGYRARDLASHQEVEQLFEQLDSIPSTVVHSAGSGYFGLLQEQDPEQIQTLIENNLSSAINVLRELVKRYKDQPVNVVMIMSTAAQQPKAQESTYCAVKWAVKGLIESVRLELKGKPMKIIAVYPGGMATEFWETSGKSLDTSSFMSAEDAALMIHGALANIGNGYVSDITVNREGHHHHHH	soluble
MKSEEAYSILDIVSESEGQGVVLTRSGSICVSFELREPECYSLTPEDIDRRDGMFREAFKFLPDGTYVHKQDVFLKERYCPDIAGGSFLDRADARHFRGRLYVSHTCVMHFVLSGLKSLEKAYISSPLSYKENLHKEDLARLDEFLEGVDNAVGIIRSMRDTEIAPMSGQEMRDFTAGYTTLFDAPGAVVDIHADTELRTGKKRARCFAVCDEIFLPDGSLDSCVRDDSLPPAGSLLYHPMLERLGMYLPYNHIVNQVVFFEGNGRLRERIARNIDIYGSNSGMSRSIKVQYQKLDELQQEILEENETLVRSFFSVCVFDESEAELEKADKKIRETLNLARLGYYIPGYENLAAVHFACVPGQIHLMPRKYLFLTTLPIALCFFLQCGSFRNDSEGIYVHDRMYQVPLRKDIWDAGKKRVNARNGMVIAGTGGGKSAFTLNLTQQLIEQDYTVVVVEFGKSFSQLCRLYPDISLHVDYDGRTALGINPFDLQGEELDNGSIEMLSGVVQKYWRHMFTKDESEKEVALTRFIQDYYENVREGHNFESFYNHVTEHYPEILARKHIPKDYFSLESFSLNCGEFLPGRRYENVCKDTGTDFSGKRFIVFELTQIKQDRFLSNLVMGMIFTVIQKKLLSDRRKRGVLIFDEYGETAQMVDTATGTGIHSSVAFCYQKIRKENGAVYTIIQNPDQLPENEHTKNIIANTDMLFVLPTKEVIYQSVIDRFRLTHPGQIALMKSMRNNFSGQRPYSECFMRLGEHYATVTRLEFSREKFLAFQTEGEIWSDLEEKNRRMSMEDAIEEYIREHQ	not soluble
MSNEMYYVQASDPAILEKGECGGAVTALFKYLLDKGIVDGVLALKKGVDVYDAIPTFVTSSEDLLSTAGSLHCAPTMWGGIIKEYLQDAKIAVPVKPCDMRAIVELAKRAQINLDNVYMIGLNCGGTVPPKTAMEMIKLFYEVDPKDVVKEEIDKGKFIIVMKDGSHKEVKMHDLEDNGYGRRVNCQRCDEKIPRKADIAAGNWGVIGEDAGKYTFMEVCTEKGKQLLKDAEKDGYVKTKAPNPKGLEIRAKVESSMLKMGEDYKNKWLEEKYPTIEEWNRQWNKCIKCYGCRDVCPVCFCRECALTADYVDTGSIPPDPIMFQGVRMSHMAFSCVNCGQCEDVCPMEIPVARIFHKIQEKTRKELGYRPGVDDEAPPALGGSCPTQLEHHHHHH	not soluble
EFSSEELIRMSNYLNELLVGVPVGQVRTRILEEMRNEKVLYDKLLARALQLSEQSLNDDGAQIFIEGQTNILEQPEFADSRRMRDLFRAFEEKNQLVGLLDRCLNAQGVQIFIGAETHLSQMEGLSIITSTYLTGKNTLGVLGVIGPTRMGYAKVIPIVDYTAKLVSRLLEG	not soluble
MGSRENLYFQGLEHHHHHHHMGHETKAQLKDYVEVKIMKIKTTVAALSVLSVLSFGAFAADSIDAAQAQNREAIGTVSVSGVASSPMDMREMLNKKAEEKGATAYQITEARSGDTWHATAELYK	soluble
MGLSHKFQVKQFVEISPYSQSRLRHEQPQTPIHSDITTYHCHRGQFDIVAGGLPCQGTSNAGNRQGLDDPRSALWAEQFRIIESDRPAIALIENPTGLLYRGLEQIICDLDSIGYMGEWNCISAQQVGLPHQRKRIFIIAYSNGLFNQVVPAPWSNQIGNHITQVRLSLETRSYQPGISKVASRIPIGVAKNIPGNYDARRAYGLSCSPRQAAVAWKRIDYLCSLLEHHHHHH	not soluble
MTVTSSAAIDIGGGGGGRRSDRLDSDRTSEDMSFIASPANESFQIGASFVDVQNESSGSIDTATATLHELNYTFGMPPVTEESENMPQNYETVVELLPGEERAPINKLTEFPIEGGSLFVTNFRIVVILKDKEVEEALRFLVFPLQDIEQIDLAIPAFIHLSLKIGRMFTICFKTAEDAALVHKILYTAFQRLNRPISSIYTSRPQDWTSKNTDNPMQSLNAFAWKFSEAVDELDRDGKLPSWLLRADSVAQEITHIDFNRLGMSEHFQISSVNENFEVCPTYPEKIIVPKGITDDDIRKGAPYRSIGRFPAVIWRCRKTRAVLMRSSQPQVGILSWRNPTDEKIIEEAVKASRIEGEEKKQFIIMDARGYTSAFANRARSGGFENTEYYQQAKLEFLGLPNIHAVRGSFNNVRTMLHNLGPNEQLLTSLQTTGWLLNLSNLLVNAANCADHLSKGHSVLVHCSDGWDRTTQVTTLAKIMLDEYYRTVKGFEELIRRDWIAFGHKLYDRQLVAFGNWGTSDERSPVFLQFLEAVRHLQREQPTLFQFTHAYLIKLAKHAYSGLFGSFLFNSHKERREAMEKCKGTLVDIWRFIGPHNEEYVNQSFDEHYTGAVKPVNVSVINLRVWHEVFADEEEHYTQIFSPKEERPLSGCTTPMNTSTSTNLVKSKSSESINSLNVDGSAKESSQQHPTCSTTPSDNTNSLPMSTSFIQQSLYQPKVRGVAAIDRDGVIRFEDDEQAMLRKKNKLRAEEIRRKDEKIEELRRRAVLDTNKVSPGQRQSYSESDVETTGTLERVMSDVSMVDPVNELPHFKPNTTWEGESGHCAYCKKEFNKLSVYVEDRQHHCRNCGRVVCEDCSKNRFSVIEEGKSVQKRACDSCYDSMHETDLKLSSSSTTTTSSSTKIENDSNVPGLDNNSDNVSENVSENAIPDIIVEEKEAEDPIKEAESPSKETKCPKTLRNFISFSPKSSMRKNKVHSRDPLKSIDEGSSSQQAESDDVLDVNEQPL	not soluble
AKQAAQSTFNSFHEWAKQAEAMRNPSRMDIYKIYKQDAPHSHPMSDEQQEEFLHTLKALNGKNGIEVRTQDHDSVRNKKDRNLDKYIAESPDAKRFFYRIIPKHERREDKNQGRLTIGVQPQYATQLTRAMATLIGKESAITHGKVIGPACHGQMTDSAVLYINGDVAKAEKLGEKLKQMSGIPLDAFVEHTPLSMQSLSKGLSYAESILGDTRGHGMSRAEVISDALRMDGMPFLARLKLSLSANG	not soluble
MKICLQAGAVKQIENYFSISTDGVEIRIWFLTDSVVRIRAGFDGDFVEESYSLVTTAWEDRMDMFMKHYRKRIQTAEAQLTDGLEKAVIQGKVLRVEVEKNPFRICVYDAENTQIHADIVDLAYMEDSNNRRIHTSEITEDDCFY	not soluble
MGSDKIHHHHHHAQNTASVQEAMANYDYKTVIRLIDEESASPQLLIQKAKALKSLGRTAEALSTLQHIIIELPENQQALVEAAECCRQLSKFNEALGYYRKVMELNPEHIYAHLQYTRLLYNYQRYGDALRESIALARKDSSATVLRLMAESMEGAGMPVESMFCYLSIIRKYPSDYLSVAKLGSIFNTMKDYEGAIALTEAYRRTDSTNVEVNRQNALAYCLRKEYPTAIKRYQDLTARGDSTLLTCYYLGVSYYATKEYYKARDWLLKAKSCQSPGANLLYYLGRSCSKTLWKQEGIGYLNQAIALTIPADSIMERLYSGLADCYRQTKQTRDQIKATKEQYKYAPDKHILLYNLAFLSDKIGDTKATEHYLQAFLRTKSKQNAVLQQPDDDEEEPAPYIDYYKSATNKLESIRKEKFLKGEK	not soluble
MADDGVNPKAFPLADTNLSQKLMDLVQQAMNYKQLKKGANEATKTLNRGISEIIVMAADAEPLEILLHLPLLCEDKNVPYVFVRSKAALGRACGVTRPVIAASITQNEGSQLKSQIQKIKEDVEKLLI	not soluble
